Source: the RNAGym collection of RNA variant scans (doi:10.7554/elife.90254)

B1: LINE1-full (parent)
chain: UACGUAGGUGGUUUUCCCCUGAUAGUGCUAAGGGGGCCUGGAAGUUUGGACUGGGCAGAGCUCAACACAGCGUGGCAAAGUGGCUGUGGCUAGACUGCCUCUCUGGAUUCCUCGUCACUCAGCAGGGCAUCUCUGAGAGAAAUGCC

Variants of: B1
Experiment: self-cleavage, relative activity (ratio to wild type); higher = more cleavage; in vitro, sequencing; the parent is a self-cleaving ribozyme

In order of falling self-cleavage:
1. U23C A142U  2.35
2. A22U U119G  2.23
3. U23A A129G  2.15
4. A22G A117C  2.12
5. U23A A30G  2.09
6. A22C U119A  2.09
7. G21A G82A  2
8. U20G U108C  1.97
9. A22C A129U  1.96
10. A22C U73C  1.88
11. U23A G144A  1.85
12. U23C C131U  1.84
13. A22U U115C  1.77
14. A22G U100C  1.75
15. U20G U119C  1.74
16. A22C A92U  1.7
17. U20C U100C  1.69
18. A22G U132G  1.67
19. A22G G127U  1.67
20. A22G U81A  1.67
21. G21A A142G  1.66
22. G21U G72A  1.62
23. U23C G122A  1.61
24. G21A U45A  1.58
25. A22G U52C  1.56
26. A22U A42G  1.54
27. U20C U109A  1.54
28. U23C A124G  1.52
29. A22G U115A  1.52
30. U20C U143A  1.5
31. A22G U102A  1.5
32. G21U C51A  1.48
33. G21A U115A  1.46
34. A22G A78C  1.45
35. A22U U47A  1.44
36. U23C G48A  1.44
37. U23C G34U  1.44
38. U23C U52C  1.43
39. A22U C103U  1.42
40. U23A U39A  1.42
41. A22G C76U  1.39
42. A22G U104A  1.38
43. U23A U52A  1.37
44. U20G A77G  1.36
45. A22G U109C  1.36
46. U23C C111U  1.34
47. U20C U109C  1.34
48. A22C A141G  1.34
49. U23C U47C  1.32
50. A22G A50U  1.32
51. G21A A78G  1.31
52. A22G G122C  1.31
53. U23A A31C  1.31
54. A22G A59C  1.31
55. G21A U46C  1.31
56. U23C U100A  1.3
57. A22G U73A  1.29
58. A22G G53U  1.29
59. U23C G144A  1.28
60. U23A U45A  1.28
61. A22U U143G  1.27
62. A22U G72A  1.27
63. A22G A141G  1.27
64. U23C A136G  1.27
65. U23C G34A  1.26
66. A22G U104C  1.26
67. U23A A50G  1.25
68. U20C U102C  1.25
69. A22G G44A  1.25
70. A22G A138G  1.25
71. A22G G33U  1.25
72. U23A A77U  1.24
73. U23C A42U  1.22
74. U20C U102A  1.21
75. A22U U108C  1.19
76. A22U G122A  1.19
77. A22G U115C  1.18
78. G21A U134A  1.17
79. U20G A79G  1.17
80. U23A U73A  1.16
81. A22G G75A  1.13
82. U23C A24C  1.09
83. U23C C133A  1.09
84. U20G A142G  1.09
85. U20G A69G  1.05
86. A22G U46C  1.04
87. U20G C37A  1.04
88. A22U U47C  1.04
89. A22G U102C  1.04
90. G21A U29C  1.04
91. A22U A31G  1.04
92. A22G U134A  1.03
93. G21A U112C  1.02
94. U23C G83A  1.02
95. A22U A43G  1.01
96. A22G A121U  1
97. A22G G80U  1
98. U23A U26C  0.99
99. U20G A136U  0.98
100. A22G A24G  0.98
101. A22G U100A  0.98
102. A22G U134C  0.96
103. A22U A79G  0.96
104. A22G A121G  0.95
105. U23A A57G  0.94
106. A22G C37U  0.94
107. A22G U52G  0.92
108. G21A A50C  0.9
109. A22G A31U  0.86
110. G21A U45C  0.84
111. A22G G49A  0.84
112. U20G G41U  0.84
113. A22U G34A  0.82
114. U20C U100A  0.81
115. U23C A31U  0.77
116. A22G G54A  0.75
117. A22G U91A  0.71
118. G21A A50G  0.71
119. A22G U91C  0.65
120. A22G U23C  0.63
121. A22G C133U  0.58
122. A22G G40A  0.55
123. U20C U112G  0.54
124. A22U U96G  0.53
125. U23C A94U  0.48
126. G21A A67G  0.48
127. U20G U91A  0.47
128. U20G G48A  0.43
129. U23C C113A  0.4
130. A22C U85C  0.35
131. A22G A31G  0.35
132. G21A U91C  0.35
133. U23A A64U  0.34
134. A22G A59U  0.33
135. U23A U85C  0.28
136. U20G U96C  0.26
137. U20C U87C  0.24
138. A22G C99U  0.23
139. A22G G54U  0.23
140. U23A A64G  0.23
141. U23C G55U  0.22
142. U23C U85C  0.22
143. G21A A65U  0.21
144. U23A A67U  0.19
145. G21U A94G  0.18
146. U23C A67U  0.18
147. A22U A69U  0.12
148. A22G U85A  0.12
149. A22G A92C  0.12
150. U23A A92G  0.12
151. A22U U87A  0.1
152. G21A A94G  0.1
153. A22G U62C  0.09
154. A22U U96A  0.09
155. A22G G89A  0.09
156. U23A G93A  0.08
157. U20C U96C  0.08
158. U23C U85A  0.07
159. A22G C61U  0.07
160. G21U U96C  0.06
161. U23C C61A  0.06
162. G21A A59G  0.04
163. A22G G93A  0.03
164. G21U U62A  0.02
165. U23C A69U  0.02
166. A22G G122A  0
167. G21U A65C  0
